# Reference: patent US9371374 (AbbVie / Abbott, dated 2016)
# Residue numbers refer to the chain shown, from its start.
# B1: HCV 208A-741 (antibody, V domains shown)
# VH: QLQQSGPVLVKPGASVMISCKTSGYTFTENAMHWVKQSHGKSLEWIGGVNPNNGDTIFNQKFKGKATLTVDKSSSTAFMELRSLTSEESTVYYCVRRELDFFDYWGQGTSVTVSS
# VL: DIVLTQSPASLAVSLGQRTTISCGASQSVSTSRFSYMHWYQQKPGQPPKLLIKYASNLESGVPARFSGSGSGTDFTLNIHPVAEEDTAAYYCQHSWEFPFTFGSGTKLEIKR
# B2: HCV 208A-293 (antibody, V domains shown)
# VH: EVQLQQSGPELVKPGASVKISCKASGFTFTEYAMHWMKQSHGKSLEWIGGINPTNGDAIYNQKFKDKAKLTVDRSSSTAYMELRSLTSDDSALFYCARRELDYFPSWGQGTTLTVSS
# VL: B1 VL with A12I, T19A, G24R, M37V, Y40I, A64V, T76I, A83E, A89T, Y91F
# B3: HCV 208A-422 (antibody, V domains shown)
# VH: DVQLQESGPGLVNPSQSLSLTCSVTGYSITSGYYWIWIQQSPGNKLEWMGYIKYDGGNNYSPSLKNRISIARDTSKNQCFLKLNSVTIEDTATYYCTRGSDSFDYWGQGTTLTVSS
# VL: DIVLTQSPASLAVSLGQRAIISCKASQSVSFAGTNLMHWYQQKPGQQPKLLIYRASNLETGVPTRFSGSGSRTDFTLNIHPVEEDDAATYYCQQSREYYTFGGGTKLEIKR
# B4: HCV 208B-1096 (antibody, V domains shown)
# VH: QVQLQQSGAGLAKPGASVKMSCKASGYTFTANKMHWAKQRPGQGLEWIGYIDPSSGYTEYNHKIQYKATLTADTSSSTAYMQLSTLTFEDSAVYYCTNFAYWGQGTLVTVSA
# VL: DIVMTQTPLTLSVTIGQPASISCKSSQSLLFTNGKTYLNWFLQRPGQSPKRLIYLLSKLDSGVPDRFSGSGSGTDFTLKISRVEAEDLGVYYCLQSTYFPLTFGAGTKLELKR
# B5: HCV 208B-395 (antibody, V domains shown)
# VH: B4 VH with A37T, E59Q, Y66D, T85S
# VL: DIVLTQSPATLSVTPGDRVSLSCRASQRIYNYLHWYQQKSHESPRLLIKYASQSISGIPSRFSGSGSGTDFILTINSVETEDFGMYFCQQSNSWPLTFGAGTKLELRR
# B6: HCV 208A-692 (antibody, V domains shown)
# VH: QGQMQQSGAELAKPGASVKLSCKTSGFTFSSSYISWLKQKPGQSLEWIAWIFAGTGNTNYNQKFTDKAQLTVDTSSSTAYMQLSSLTTEDSAIYYCAISGTGFTYWGQGTLVTVSA
# VL: EVLMTQSPLSLPVSLGDQASISCRSSQSLEHSNGNTYLEWFLQRPGQPPKLLIYKVSSRFSGVPDRFSGSGSGTDFTLKISRVEAEDLGVYYCFQGSHVPFTFGSGTKLAIKR
# Key:
# [1] = target: T1, HCV Core1-169 (HCV-1, UniProt P26664 1-169); assay: sandwich EIA, capture 208B-1096
# T1 construct: also called Solid Phase HCV Core
# T1 sequence: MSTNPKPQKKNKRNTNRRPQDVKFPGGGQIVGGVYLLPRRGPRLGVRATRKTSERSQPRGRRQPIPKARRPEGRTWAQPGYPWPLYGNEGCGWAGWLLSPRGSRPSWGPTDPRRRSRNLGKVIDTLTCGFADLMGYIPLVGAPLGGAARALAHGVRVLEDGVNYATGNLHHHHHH
# [2] = target: T1, HCV Core1-169; assay: sandwich EIA, capture 208B-395-334
# [3] = target: HCV Core 134-171-TT peptide (ALRZ-9 peptide) (HCV-1); assay: SPR, captured mAb;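 further: Anti-HCV Core mAbs from hybridoma supernatants held on a rabbit anti-mouse IgG CM5 surface, peptide flowed over 3 min then 4 min dissociation, duplicate concentrations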
# [4] = target: T1, HCV Core1-169; assay: sandwich EIA, capture 208A-110
# [5] = target: T1, HCV Core1-169; assay: sandwich EIA, capture 208A-293
# [6] = target: T1, HCV Core1-169; assay: sandwich EIA, capture C11-9
# [7] = target: T1, HCV Core1-169; assay: sandwich EIA, capture C11-7
# [8] = target: T1, HCV Core1-169; assay: sandwich EIA, capture 208B-612-226
# [9] = target: T1, HCV Core1-169; assay: sandwich EIA, capture 208A-207-271
# [10] = target: T1, HCV Core1-169; assay: sandwich EIA, capture 208A-557
# [11] = target: T1, HCV Core1-169; assay: sandwich EIA, capture 208A-692
# [12] = target: T1, HCV Core1-169; assay: sandwich EIA, capture 208B-741
# [13] = target: T1, HCV Core1-169; assay: sandwich EIA, NC capture mAb; further: test concentration or dose not given here
# [14] = target: T1, HCV Core1-169; assay: EIA, coated core1-169
# [15] = target: T1, HCV Core1-169; assay: EIA, core captured by anti-domain 1 mAb
Binder,OD492 [1] [OD],OD492 [2] [OD],Kd [3] [nM],koff [3] [s⁻¹],kon [3] [M⁻¹ s⁻¹],OD492 [4] [OD],OD492 [5] [OD],OD492 [6] [OD],OD492 [7] [OD],OD492 [8] [OD],OD492 [9] [OD],OD492 [10] [OD],OD492 [11] [OD],OD492 [12] [OD],OD492 [13] [OD],OD (A492) [14] [OD],OD (A492) [15] [OD]
B1,0.52,0.34,0.41,0.00069,1.7e+06,0.42,0.42,2.13,2.36,0.29,0.33,0.4,0.32,0.36,0.29,,
B2,0.41,0.44,0.11,0.00023,2.1e+06,0.52,0.49,2.6,2.87,0.37,0.39,0.52,0.34,0.5,0.37,,
B3,,,,,,,,,,,,,,,,1.68,0.18
B4,0.26,0.2,0.46,0.0006,1.3e+06,0.19,0.24,0.33,1.06,0.24,0.18,0.17,0.15,0.23,0.17,,
B5,0.23,0.23,0.36,0.00047,1.3e+06,0.21,0.26,0.32,0.89,0.26,0.2,0.21,0.15,0.21,0.2,,
B6,0.38,0.44,,,,0.54,0.51,2.66,2.92,0.37,0.39,0.53,0.35,0.44,0.4,,
